The source of these data is patent publication US20120322725A1.

The target of test [1] is glucagon receptor (UniProt P47871). Briefly: cell-based or functional assay.
Test [2] shares this target. As to the kind of experiment: cell-based or functional assay. This is another data set of the same source.
Test [3] concerns the target GLP-1 receptor (UniProt P43220). Briefly: cell-based or functional assay.
Test [4] shares this target. Briefly: cell-based or functional assay. This is another data set of the same source.
Test [5] deals with glucagon receptor, P47871. As to the kind of experiment: receptor binding, method not described.
In test [6] the target is glucagon receptor, P47871. As to the kind of experiment: cell-based or functional assay.

In general, IC50 refers to the midpoint of a concentration-inhibition curve. A high value points to weaker potency.

Read-outs that look alike come from different tables or passages of the source. PLA = 3-phenyllactic acid (2-hydroxy-3-phenylpropanoic acid)

Chain of glucagon receptor (P47871 26-477 limits assumed): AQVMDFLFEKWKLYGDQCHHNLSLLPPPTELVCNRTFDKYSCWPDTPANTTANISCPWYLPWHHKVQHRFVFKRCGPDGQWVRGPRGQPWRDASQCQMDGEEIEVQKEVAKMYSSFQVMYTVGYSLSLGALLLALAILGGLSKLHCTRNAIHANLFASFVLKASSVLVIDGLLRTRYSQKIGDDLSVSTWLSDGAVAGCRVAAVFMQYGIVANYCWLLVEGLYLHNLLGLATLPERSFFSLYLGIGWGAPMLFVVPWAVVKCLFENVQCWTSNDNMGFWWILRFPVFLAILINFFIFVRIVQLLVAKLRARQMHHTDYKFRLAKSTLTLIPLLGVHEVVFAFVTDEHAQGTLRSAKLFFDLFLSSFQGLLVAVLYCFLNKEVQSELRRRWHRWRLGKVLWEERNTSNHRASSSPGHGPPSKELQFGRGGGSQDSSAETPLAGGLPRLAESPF
Chain of GLP-1 receptor (P43220 24-463 limits assumed): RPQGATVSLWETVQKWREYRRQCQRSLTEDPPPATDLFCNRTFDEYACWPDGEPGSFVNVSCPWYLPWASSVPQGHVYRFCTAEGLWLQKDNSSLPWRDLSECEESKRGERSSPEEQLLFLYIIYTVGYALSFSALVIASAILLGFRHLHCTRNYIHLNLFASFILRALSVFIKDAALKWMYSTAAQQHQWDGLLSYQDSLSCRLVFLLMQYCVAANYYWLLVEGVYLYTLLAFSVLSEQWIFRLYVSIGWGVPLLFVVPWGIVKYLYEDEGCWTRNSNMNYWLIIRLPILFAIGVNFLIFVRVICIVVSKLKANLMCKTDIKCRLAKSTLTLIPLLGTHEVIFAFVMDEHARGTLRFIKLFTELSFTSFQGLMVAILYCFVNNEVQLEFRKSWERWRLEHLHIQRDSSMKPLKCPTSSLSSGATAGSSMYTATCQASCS
Chain of glucagon receptor, P47871 (P47871 26-477 limits assumed): as the sequence (P47871 26-477 limits assumed) above

B1: [PLA6, E9, K12E16 (Lactam)] glucagon (6-CEX) analog (peptide)
peptide: TSEYSKYLDERRAQDFVQWLMNTGPSSGAPPPS
modifications: PLA at position 6, N-terminal to the letters given; lactam between K12 and E16 (glucagon numbering)
B1 came in with a Glucagon IC50 with glucagon receptor [1] of 72 nM. In the test with glucagon receptor [2], this molecule showed a Glu IC50 of 72 nM. In the test with GLP-1 receptor [3], the GLP-1 (EC50) was determined as 6 nM.
Turning to FTSEYSKYLDERRAQDFVQWLMNTGPSSGAPPPS [Glucagon (6-CEX) analog E9, K12, E16], the Glucagon IC50 with glucagon receptor [1] was found to be 762 nM. Further, the Glu IC50 with glucagon receptor [2] was determined as 762 nM.
For the molecule FTSDYSKYLDERRAQDFVQWLMNTGPSSGAPPPS (lactam between K12 and E16 (glucagon numbering)) [Glucagon (6-CEX) analog D9, K12E16 (Lactam)], in the test with glucagon receptor [1], the Glucagon IC50 was 828 nM. Moreover, the GLP-1 (EC50) turned out to be 18 nM with GLP-1 receptor [4] and 119 nM with GLP-1 receptor [3]. The same molecule showed a Glu IC50 in the test with glucagon receptor [2] of 828 nM.
FTSEYSKYLDERRAKDFVQWLMNTGPSSGAPPPS (lactam between E16 and K20 (glucagon numbering)) [Glucagon (6-CEX) analog E9, E16K20 (lactam)] showed a Glucagon IC50 with glucagon receptor [1] of 42 nM. This molecule also had a Glu IC50 in the test with glucagon receptor [2] of 42 nM. Moreover, the GLP-1 (EC50) with GLP-1 receptor [3] was 36 nM.
In the test with glucagon receptor [1], FTSEYSKYLDERRAQDFVQWLMNTGPSSGAPPPS (lactam between K12 and E16 (glucagon numbering)) [Glucagon (6-CEX) analog E9, K12E16 (lactam)] gave a Glucagon IC50 of 2010 nM. In addition, the Glu IC50 with glucagon receptor [2] is 2010 nM. The molecule further had a GLP-1 (EC50) with GLP-1 receptor [3] of 63 nM.
Molecule {PLA}-TSEYSKYLDSRRAQDFVQWLMNTGPSSGAPPPS-NH2 [[PLA6, E9]Glucagon (aa6-29 + CEX)-NH2] returned an IC50 in test [5] of 40.3 nM. Further, the IC50(nM) (cAMP, inhibit Glucagon) 0.1 nM or 0.2 nM in test [6] is 24.8 nM.
